The first experiment deals with Aβ42 fibers (UniProt P05067). As to the kind of experiment: cell-based or functional assay.
Sequence of Aβ42 fibers (P05067 672-713 limits assumed): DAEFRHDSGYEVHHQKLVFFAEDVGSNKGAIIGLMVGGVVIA
Take “N1-N2-hIgG1-Fc fusion protein (SEQ ID NO:1) (from UniProt O34714 1-385)”: the EC50, cellulose acetate filter retardation assay (disaggregation) amounted to 100 nM.

The target in a further experiment is Aβ42 fibers (UniProt P05067). As to the kind of experiment: ELISA, Aβ42 fibers on plate; IC50(variant)/IC50(SEQ ID NO: 3). (In an ELISA, binding on a coated surface is turned into a signal by an enzyme label.)
“N1-N2-human IgG Fc fusion protein of SEQ ID NO: 3 with G48R (from UniProt P69168 19-274)” showed an IC50 Relative to SEQ ID NO: 3 of 1.9.

In the case of “N1-N2-human IgG Fc fusion protein of SEQ ID NO: 3 with Y54P”, the IC50 Relative to SEQ ID NO: 3 was 0.07.

On to “N1-N2-human IgG Fc fusion protein of SEQ ID NO: 3 with T51Q”, for which the IC50 Relative to SEQ ID NO: 3 worked out at 0.8.

As to “N1-N2-human IgG Fc fusion protein of SEQ ID NO: 3 with R140H”, the IC50 Relative to SEQ ID NO: 3 turned out to be 0.2.

With “N1-N2-human IgG Fc fusion protein of SEQ ID NO: 3 with S173P”, the IC50 Relative to SEQ ID NO: 3 was found to be 0.4.

As to “N1-N2-human IgG Fc fusion protein of SEQ ID NO: 3 with T51G (from UniProt P69168 19-274)”, the IC50 Relative to SEQ ID NO: 3 was determined as 0.8.

With “N1-N2-human IgG Fc fusion protein of SEQ ID NO: 3 with W181K”, the IC50 Relative to SEQ ID NO: 3 came to 0.3.

“N1-N2-human IgG Fc fusion protein of SEQ ID NO: 3 with M135R (from UniProt P69168 19-274)” returned an IC50 Relative to SEQ ID NO: 3 of 0.1.

As for “N1-N2-human IgG Fc fusion protein of SEQ ID NO: 3 with M135H (from UniProt P69168 19-274)”, the IC50 Relative to SEQ ID NO: 3 came to 0.1.

“N1-N2-human IgG Fc fusion protein of SEQ ID NO: 3 with D178T” came in with an IC50 Relative to SEQ ID NO: 3 of 0.4.

The substance “N1-N2-human IgG Fc fusion protein of SEQ ID NO: 3 with W181G” showed an IC50 Relative to SEQ ID NO: 3 of 0.5.

Turning to “N1-N2-human IgG Fc fusion protein of SEQ ID NO: 3 with M135A (from UniProt P69168 19-274)”, the IC50 Relative to SEQ ID NO: 3 stood at 0.4.

For “N1-N2-human IgG Fc fusion protein of SEQ ID NO: 3 with D178Q”, the IC50 Relative to SEQ ID NO: 3 was determined as 0.6.

Substance “N1-N2-human IgG Fc fusion protein of SEQ ID NO: 3 with T51P” had an IC50 Relative to SEQ ID NO: 3 of 0.2.

In turn, “N1-N2-human IgG Fc fusion protein of SEQ ID NO: 3 with M176N (from UniProt P69168 19-274)” came in with an IC50 Relative to SEQ ID NO: 3 of 0.5.

Turning to “N1-N2-human IgG Fc fusion protein of SEQ ID NO: 3 with D178S”, the IC50 Relative to SEQ ID NO: 3 was 0.3.

“N1-N2-human IgG Fc fusion protein of SEQ ID NO: 3 with T51N” displayed an IC50 Relative to SEQ ID NO: 3 of 0.5.

Turning to “N1-N2-human IgG Fc fusion protein of SEQ ID NO: 3 with G48T”, the IC50 Relative to SEQ ID NO: 3 was determined as 1.

Regarding “N1-N2-human IgG Fc fusion protein of SEQ ID NO: 3 with M176H”, the IC50 Relative to SEQ ID NO: 3 stood at 0.4.

Consider “N1-N2-human IgG Fc fusion protein of SEQ ID NO: 3 with M176K (from UniProt P69168 19-274)”, for which the IC50 Relative to SEQ ID NO: 3 amounted to 0.2.

Consider “N1-N2-human IgG Fc fusion protein of SEQ ID NO: 3 with F141E (from UniProt P69168 19-274)”, for which the IC50 Relative to SEQ ID NO: 3 came out at 0.2.

“N1-N2-human IgG Fc fusion protein of SEQ ID NO: 3 with M135D (from UniProt P69168 19-274)” came in with an IC50 Relative to SEQ ID NO: 3 of 0.5.

Substance “N1-N2-human IgG Fc fusion protein of SEQ ID NO: 3 with R140D” registered an IC50 Relative to SEQ ID NO: 3 of 0.3.

In turn, “N1-N2-human IgG Fc fusion protein of SEQ ID NO: 3 with D178G (from UniProt P69168 19-274)” showed an IC50 Relative to SEQ ID NO: 3 of 0.2.

“N1-N2-human IgG Fc fusion protein of SEQ ID NO: 3 with G48H” returned an IC50 Relative to SEQ ID NO: 3 of 1.8.

“N1-N2-human IgG Fc fusion protein of SEQ ID NO: 3 with T51H (from UniProt P69168 19-274)” came in with an IC50 Relative to SEQ ID NO: 3 of 1.5.

The substance “N1-N2-human IgG Fc fusion protein of SEQ ID NO: 3 with T56H” showed an IC50 Relative to SEQ ID NO: 3 of 0.77.

As for “N1-N2-human IgG Fc fusion protein of SEQ ID NO: 3 with T56G”, the IC50 Relative to SEQ ID NO: 3 was found to be 0.1.

The substance “N1-N2-human IgG Fc fusion protein of SEQ ID NO: 3 with M135G” registered an IC50 Relative to SEQ ID NO: 3 of 0.2.

“N1-N2-human IgG Fc fusion protein of SEQ ID NO: 3 with M135N (from UniProt P69168 19-274)” showed an IC50 Relative to SEQ ID NO: 3 of 0.3.

“N1-N2-human IgG Fc fusion protein of SEQ ID NO: 3 with R140G (from UniProt P69168 19-274)” showed an IC50 Relative to SEQ ID NO: 3 of 0.2.

On to “N1-N2-human IgG Fc fusion protein of SEQ ID NO: 3 with T56R (from UniProt P69168 19-274)”, for which the IC50 Relative to SEQ ID NO: 3 is 0.8.

For the substance “N1-N2-human IgG Fc fusion protein of SEQ ID NO: 3 with R140A”, the IC50 Relative to SEQ ID NO: 3 amounted to 0.2.

In the case of “N1-N2-human IgG Fc fusion protein of SEQ ID NO: 3 with G48K (from UniProt P69168 19-274)”, the IC50 Relative to SEQ ID NO: 3 amounted to 1.1.

Consider “N1-N2-human IgG Fc fusion protein of SEQ ID NO: 3 with G48S”, for which the IC50 Relative to SEQ ID NO: 3 was 1.2.

As for “N1-N2-human IgG Fc fusion protein of SEQ ID NO: 3 with R140E”, the IC50 Relative to SEQ ID NO: 3 came to 0.3.

Take “N1-N2-human IgG Fc fusion protein of SEQ ID NO: 3 with Y54H”: the IC50 Relative to SEQ ID NO: 3 is 0.3.

In turn, “N1-N2-human IgG Fc fusion protein of SEQ ID NO: 3 with T51R” came in with an IC50 Relative to SEQ ID NO: 3 of 2.

In turn, “N1-N2-human IgG Fc fusion protein of SEQ ID NO: 3 with T51K” had an IC50 Relative to SEQ ID NO: 3 of 2.5.

As to “N1-N2-human IgG Fc fusion protein of SEQ ID NO: 3 with F141D”, the IC50 Relative to SEQ ID NO: 3 turned out to be 0.2.

With “N1-N2-human IgG Fc fusion protein of SEQ ID NO: 3 with S173G (from UniProt P69168 19-274)”, the IC50 Relative to SEQ ID NO: 3 turned out to be 0.2.

“N1-N2-human IgG Fc fusion protein of SEQ ID NO: 3 with M176G” returned an IC50 Relative to SEQ ID NO: 3 of 0.3.

“N1-N2-human IgG Fc fusion protein of SEQ ID NO: 3 with M176R” displayed an IC50 Relative to SEQ ID NO: 3 of 0.2.

Regarding “N1-N2-human IgG Fc fusion protein of SEQ ID NO: 3 with W181H”, the IC50 Relative to SEQ ID NO: 3 stood at 0.87.

For the origin of these results see patent publication US20160115223A1.
